Data: PMC3028594 (DNA repair, 2010)

B1: Bacillus subtilis β sliding clamp (β subunit of DNA polymerase III) (natural protein, UniProt P05649 1-378, looked up)
chain: MKFTIQKDRLVESVQDVLKAVSSRTTIPILTGIKIVASDDGVSFTGSDSDISIESFIPKEEGDKEIVTIEQPGSIVLQARFFSEIVKKLPMATVEIEVQNQYLTIIRSGKAEFNLNGLDADEYPHLPQIEEHHAIQIPTDLLKNLIRQTVFAVSTSETRPILTGVNWKVEQSELLCTATDSHRLALRKAKLDIPEDRSYNVVIPGKSLTELSKILDDNQELVDIVITETQVLFKAKNVLFFSRLLDGNYPDTTSLIPQDSKTEIIVNTKEFLQAIDRASLLAREGRNNVVKLSAKPAESIEISSNSPEIGKVVEAIVADQIEGEELNISFSPKYMLDALKVLEGAEIRVSFTGAMRPFLIRTPNDETIVQLILPVRTY

Key:
Assay in all cases: cross-linking
[1] = target: B1
cross-linking = target: the molecule itself
[2] = target: Escherichia coli β sliding clamp (β subunit of DNA polymerase III) (Escherichia coli, UniProt P0A988 1-366)
Sequence of Escherichia coli β sliding clamp (β subunit of DNA polymerase III) (P0A988 whole entry): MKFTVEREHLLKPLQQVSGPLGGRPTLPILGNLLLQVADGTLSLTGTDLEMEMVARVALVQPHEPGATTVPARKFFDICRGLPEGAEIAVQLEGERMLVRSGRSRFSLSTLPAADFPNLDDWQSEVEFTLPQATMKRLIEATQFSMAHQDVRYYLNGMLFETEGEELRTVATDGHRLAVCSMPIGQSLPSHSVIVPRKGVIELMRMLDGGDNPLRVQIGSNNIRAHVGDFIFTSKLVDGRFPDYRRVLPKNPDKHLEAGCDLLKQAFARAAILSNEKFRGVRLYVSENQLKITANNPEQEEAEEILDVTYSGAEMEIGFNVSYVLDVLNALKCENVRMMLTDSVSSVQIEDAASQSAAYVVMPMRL

| binding result [1] | binding result [2] | Binder | stoichiometry N (cross-linking) |
| --- | --- | --- | --- |
| binds | – | regulatory subdomain of Bacillus subtilis MutL (domain or fragment, UniProt P49850 471-574, looked up) KYEYFREKVGEVEPEVQEMIVPLTFHYSTNEALIIEQHKQELESVGVFLESFGSNSYIVRCHPAWFPKGEEAELIEEIIQQVLDSKNIDIKKLREEAAIMMSCK | – |
| binds | – | C-terminal domain of Escherichia coli MutL (domain or fragment, UniProt P23367 432-615, looked up) SQSFGRVLTIVHSDCALLERDGNISLLSLPVAERWLRQAQLTPGEAPVCAQPLLIPLRLKVSAEEKSALEKAQSALAELGIDFQSDAQHVTIRAVPLPLRQQNLQILIPELIGYLAKQSVFEPGNIAQWIARNLMSEHAQWSMAQAITLLADVERLCPQLVKTPPGGLLQSVDLHPAIKALKDE | ≥ 2 |
| – | – | B1 | 2 |
| – | binds | regulatory subdomain of Escherichia coli MutL (domain or fragment, UniProt P23367 466-569, looked up) WLRQAQLTPGEAPVCAQPLLIPLRLKVSAEEKSALEKAQSALAELGIDFQSDAQHVTIRAVPLPLRQQNLQILIPELIGYLAKQSVFEPGNIAQWIARNLMSEH | – |
| – | binds | C-terminal (endonuclease) domain of Bacillus subtilis MutL (domain or fragment, UniProt P49850 433-627, looked up) SDRVPIMYPIGQMHGTYILAQNENGLYIIDQHAAQERIKYEYFREKVGEVEPEVQEMIVPLTFHYSTNEALIIEQHKQELESVGVFLESFGSNSYIVRCHPAWFPKGEEAELIEEIIQQVLDSKNIDIKKLREEAAIMMSCKGSIKANRHLRNDEIKALLDDLRSTSDPFTCPHGRPIIIHHSTYEMEKMFKRVM | 2 |
